Reference: US5578310A, “Topical bioadhesive ointment compositions and their use in wound healing” (Berlex Laboratories Inc., priority 1994, dated 1996)

Experiments:
[1] = In vivo uptake and tissue distribution of 125I-TGFα from TJ-TGFα formulation on wounded cheek pouch; set-up: species or system Golden Syrian hamsters; conditions: for Distribution of 125I-TGFα in the Tissues: Small Intestine / Distribution of 125I-TGFα in the Tissues: Stomach / Distribution of 125I-TGFα in the Tissues: Submaxillary Gland / Distribution of 125I-TGFα in the Tissues: Thyroid / Distribution of 125I-TGFα in the Tissues: Tongue / Distribution of 125I-TGFα in the Tissues: Blood / Distribution of 125I-TGFα in the Tissues: Cecum / Distribution of 125I-TGFα in the Tissues: Colon / Distribution of 125I-TGFα in the Tissues: Esophagus / Distribution of 125I-TGFα in the Tissues: Kidney / Distribution of 125I-TGFα in the Tissues: Liver: cheek pouch wound; for Distribution of 125I-TGFα in the Tissues: Cheek Pouch: right-hand side cheek pouch (application site); for Distribution of 125I-TGFα in the Tissues: Skin: 25 cm^2 skin on back
Source text: (§1) The TGFα-containing ointment composition of Example 2 (TJ-TGFα formulation) was subjected, both in vitro and in vivo, to evaluation to meet the therapeutical requirements for oral mucositis. The in vitro evaluation included TGFα release and extraction from the composition, autoclave sterilizability and the bioactivity and stability of TGFα in the composition. The in vivo evaluation included TGFα uptake and tissue distribution of absorbed TGFα from hamster's cheek pouch.
(§2) B. The in vivo uptake of TGFα from the TJ-TGFα formulation was determined in Golden Syrian hamsters, female, approximately 150 g using an ^125 I-TGFα formulation (specific activity-45 μci/μg), the hamster's cheek pouch having a mechanically created wound. A pharmacokinetic study of tissue distribution of TGFα absorbed by the hamsters was also conducted. The methods employed were as follows:
(§3) 1. Fast hamsters overnight.
(§4) 2. Anesthetize hamsters by I.M. injection of ketamine HCl.
(§5) 3. Create a 2 mm diameter wound on the right-hand side of hamster's cheek pouch by a biopsy punch.
(§6) 4. Following the removal of the debridement and blood clot, administer 20 μl TJ-TGFα formulation containing 26 μci 125I-TGFα onto the wound area by a Gilson Microman.
(§7) 5. Keep the hamsters in their cages and give no water or food during the course of 6 hours study.
(§8) 6. Select three hamsters at time 15 minutes, 30 minutes, 1 hour, 2 hours, 4 hours and 6 hours and select one hamster at 24 hours for TGFα uptake and tissue distribution study.
7. Punch a needle into the hamster's heart and withdrawn 1 ml blood by a 5 ml syringe.
(§9) 8. Sacrifice hamster by inhalation of an overdose of carbon dioxide vapor from dry ice in a closed chamber.
(§10) 9. Immediately after sacrificing, remove the liver, kidney, thyroid, submaxillary gland, esophagus, stomach, small intestine, cecum, colon, 25 cm^2 skin on back, tongue and right-hand side of cheek pouch.
(§11) 11. Count the CPM of ^125 I-TGFα that distributed in the hamster's tissue and GI contents.

[2] = In vivo distribution of 125I-TGFα in the GI contents from TJ-TGFα formulation on wounded cheek pouch; set-up: species or system Golden Syrian hamsters; conditions: cheek pouch wound
Source text: as §1, §2, §3, §4, §5, §6, §7, §8, §9, §10
10. Flush the contents of esophagus, stomach, small intestine and cecum with water and collect the contents separately into a test tube.
as §11

## ^125 I-TGFα: 125I-labelled TGFα (specific activity 45 μci/μg) administered in TJ-TGFα formulation onto the hamster cheek pouch wound
[1]; 4 hrs.
  Distribution of 125I-TGFα in the Tissues: Small Intestine: 0.12%
  Distribution of 125I-TGFα in the Tissues: Stomach: 0.74%
  Distribution of 125I-TGFα in the Tissues: Submaxillary Gland: 0.42%
  Distribution of 125I-TGFα in the Tissues: Thyroid: 0.39%
  Distribution of 125I-TGFα in the Tissues: Tongue: 3.37%
  Distribution of 125I-TGFα in the Tissues: Cheek Pouch: 74%
[1]; 6 hrs.
  Distribution of 125I-TGFα in the Tissues: Skin: 0.13%
  Distribution of 125I-TGFα in the Tissues: Blood: 0.13%
  Distribution of 125I-TGFα in the Tissues: Cecum: 0.08%
  Distribution of 125I-TGFα in the Tissues: Colon: 0.12%
  Distribution of 125I-TGFα in the Tissues: Esophagus: 0.27%
  Distribution of 125I-TGFα in the Tissues: Kidney: 0.27%
  Distribution of 125I-TGFα in the Tissues: Liver: 0.24%
  Distribution of 125I-TGFα in the Tissues: Small Intestine: 0.15%
  Distribution of 125I-TGFα in the Tissues: Stomach: 1.06%
  Distribution of 125I-TGFα in the Tissues: Submaxillary Gland: 0.77%
  Distribution of 125I-TGFα in the Tissues: Thyroid: 0.88%
  Distribution of 125I-TGFα in the Tissues: Tongue: 1.25%
  Distribution of 125I-TGFα in the Tissues: Cheek Pouch: 84%
[1]; 24 hrs.
  Distribution of 125I-TGFα in the Tissues: Skin: 0.13%
  Distribution of 125I-TGFα in the Tissues: Blood: 0.22%
  Distribution of 125I-TGFα in the Tissues: Cecum: 0.05%
  Distribution of 125I-TGFα in the Tissues: Colon: 1.57%
  Distribution of 125I-TGFα in the Tissues: Esophagus: 0.04%
  Distribution of 125I-TGFα in the Tissues: Kidney: 0.24%
  Distribution of 125I-TGFα in the Tissues: Liver: 0.59%
  Distribution of 125I-TGFα in the Tissues: Small Intestine: 0.40%
  Distribution of 125I-TGFα in the Tissues: Stomach: 1.23%
  Distribution of 125I-TGFα in the Tissues: Submaxillary Gland: 0.77%
  Distribution of 125I-TGFα in the Tissues: Thyroid: 2.84%
  Distribution of 125I-TGFα in the Tissues: Tongue: 0.66%
  Distribution of 125I-TGFα in the Tissues: Cheek Pouch: 21%
[2]; 15 min.
  Distribution of 125I-TGFα in the GI Contents: Cecum: 0.003%
  Distribution of 125I-TGFα in the GI Contents: Esophagus: 0.00005%
  Distribution of 125I-TGFα in the GI Contents: Small Intestine: 0.003%
  Distribution of 125I-TGFα in the GI Contents: Stomach: 0.03%
[2]; 0.5 hrs.
  Distribution of 125I-TGFα in the GI Contents: Cecum: 0.01%
  Distribution of 125I-TGFα in the GI Contents: Esophagus: 0.01%
  Distribution of 125I-TGFα in the GI Contents: Small Intestine: 0.01%
  Distribution of 125I-TGFα in the GI Contents: Stomach: 0.056%
[2]; 1 hr.
  Distribution of 125I-TGFα in the GI Contents: Cecum: 0.02%
  Distribution of 125I-TGFα in the GI Contents: Esophagus: 0.002%
  Distribution of 125I-TGFα in the GI Contents: Small Intestine: 0.02%
  Distribution of 125I-TGFα in the GI Contents: Stomach: 0.20%
[2]; 2 hrs.
  Distribution of 125I-TGFα in the GI Contents: Cecum: 0.02%
  Distribution of 125I-TGFα in the GI Contents: Esophagus: 0.01%
  Distribution of 125I-TGFα in the GI Contents: Small Intestine: 0.02%
  Distribution of 125I-TGFα in the GI Contents: Stomach: 0.40%
[2]; 4 hrs.
  Distribution of 125I-TGFα in the GI Contents: Cecum: 0.04%
  Distribution of 125I-TGFα in the GI Contents: Esophagus: 0.37%
  Distribution of 125I-TGFα in the GI Contents: Small Intestine: 0.06%
  Distribution of 125I-TGFα in the GI Contents: Stomach: 4.1%
[2]; 6 hrs.
  Distribution of 125I-TGFα in the GI Contents: Cecum: 0.05%
  Distribution of 125I-TGFα in the GI Contents: Esophagus: 0.27%
  Distribution of 125I-TGFα in the GI Contents: Small Intestine: 0.05%
  Distribution of 125I-TGFα in the GI Contents: Stomach: 7.8%
[2]; 24 hrs.
  Distribution of 125I-TGFα in the GI Contents: Cecum: 2.63%
  Distribution of 125I-TGFα in the GI Contents: Esophagus: 0.01%
  Distribution of 125I-TGFα in the GI Contents: Small Intestine: 0.52%
  Distribution of 125I-TGFα in the GI Contents: Stomach: 5.5%
